Data taken from patent publication US9388213B2, “Polycomb repressive complex 2 (PRC2) inhibitors and uses thereof” (The Rockefeller University, priority 2012, dated 2016).
Each block holds one substance with its values, some of them ahead of it.

How the values were obtained:
PRC2 [1] = target: T1, PRC2 (Homo sapiens, UniProt Q15910); experiment: kinetic studies of PRC2 methyltransferase assays with varying mononucleosome substrate concentrations; format: biochemical; conditions: initial velocity versus nucleosome substrate concentration
T1 construct: Mono Q fractions containing stoichiometric components of PRC2 were pooled; made in house; FLAG-M2 immunoprecipitation from nuclear extract, then Mono Q
T1 sequence (Q15910 whole entry): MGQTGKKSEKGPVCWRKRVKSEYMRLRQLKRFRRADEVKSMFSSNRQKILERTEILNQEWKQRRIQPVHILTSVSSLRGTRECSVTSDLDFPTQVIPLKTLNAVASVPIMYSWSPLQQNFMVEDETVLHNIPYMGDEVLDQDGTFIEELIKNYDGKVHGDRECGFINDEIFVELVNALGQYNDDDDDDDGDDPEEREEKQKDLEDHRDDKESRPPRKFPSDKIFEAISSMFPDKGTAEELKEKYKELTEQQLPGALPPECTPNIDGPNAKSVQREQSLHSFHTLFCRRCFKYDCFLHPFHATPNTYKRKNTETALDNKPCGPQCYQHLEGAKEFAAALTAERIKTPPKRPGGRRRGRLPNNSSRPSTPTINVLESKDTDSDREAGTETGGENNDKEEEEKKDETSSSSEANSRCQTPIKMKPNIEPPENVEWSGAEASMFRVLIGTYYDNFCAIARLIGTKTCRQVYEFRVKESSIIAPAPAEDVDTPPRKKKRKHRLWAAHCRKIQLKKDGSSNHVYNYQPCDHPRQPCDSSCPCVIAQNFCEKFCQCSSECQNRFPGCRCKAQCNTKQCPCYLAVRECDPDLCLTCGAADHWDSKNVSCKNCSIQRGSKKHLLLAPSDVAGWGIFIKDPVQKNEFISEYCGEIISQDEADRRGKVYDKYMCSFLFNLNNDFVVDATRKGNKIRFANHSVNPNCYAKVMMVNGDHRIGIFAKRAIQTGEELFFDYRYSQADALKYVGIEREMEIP
T1 sequence (O75530 whole entry partner): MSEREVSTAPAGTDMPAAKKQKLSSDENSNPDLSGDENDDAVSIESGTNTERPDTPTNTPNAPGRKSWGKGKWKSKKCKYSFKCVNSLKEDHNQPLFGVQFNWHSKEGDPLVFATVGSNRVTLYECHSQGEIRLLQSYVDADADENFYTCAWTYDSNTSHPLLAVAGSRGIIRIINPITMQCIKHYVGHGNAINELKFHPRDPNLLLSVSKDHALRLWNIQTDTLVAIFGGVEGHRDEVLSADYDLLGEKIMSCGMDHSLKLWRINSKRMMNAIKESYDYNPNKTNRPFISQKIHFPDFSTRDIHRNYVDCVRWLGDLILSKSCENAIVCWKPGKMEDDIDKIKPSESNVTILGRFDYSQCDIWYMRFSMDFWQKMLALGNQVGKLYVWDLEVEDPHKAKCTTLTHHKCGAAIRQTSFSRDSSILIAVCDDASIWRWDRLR
T1 sequence (Q15022 whole entry partner): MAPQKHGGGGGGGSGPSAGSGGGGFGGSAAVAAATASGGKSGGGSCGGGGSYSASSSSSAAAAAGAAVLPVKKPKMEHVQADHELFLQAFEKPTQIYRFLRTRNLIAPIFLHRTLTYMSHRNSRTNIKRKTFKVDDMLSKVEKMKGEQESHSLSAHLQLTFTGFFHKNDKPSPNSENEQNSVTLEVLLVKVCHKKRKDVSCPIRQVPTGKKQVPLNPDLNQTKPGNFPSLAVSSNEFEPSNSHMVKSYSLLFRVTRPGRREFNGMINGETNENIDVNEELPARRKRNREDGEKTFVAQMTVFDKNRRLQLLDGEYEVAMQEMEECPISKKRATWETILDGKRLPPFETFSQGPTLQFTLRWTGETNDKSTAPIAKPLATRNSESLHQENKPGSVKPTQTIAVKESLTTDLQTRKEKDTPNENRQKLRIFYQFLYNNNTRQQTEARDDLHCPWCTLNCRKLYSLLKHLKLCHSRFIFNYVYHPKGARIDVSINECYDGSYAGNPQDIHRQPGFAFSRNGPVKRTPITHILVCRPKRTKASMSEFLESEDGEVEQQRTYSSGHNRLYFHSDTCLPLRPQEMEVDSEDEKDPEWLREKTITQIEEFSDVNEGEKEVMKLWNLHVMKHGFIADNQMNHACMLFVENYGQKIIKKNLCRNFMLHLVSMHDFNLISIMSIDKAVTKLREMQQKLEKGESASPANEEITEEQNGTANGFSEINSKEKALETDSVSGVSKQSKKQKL
T1 sequence (Q09028 whole entry partner): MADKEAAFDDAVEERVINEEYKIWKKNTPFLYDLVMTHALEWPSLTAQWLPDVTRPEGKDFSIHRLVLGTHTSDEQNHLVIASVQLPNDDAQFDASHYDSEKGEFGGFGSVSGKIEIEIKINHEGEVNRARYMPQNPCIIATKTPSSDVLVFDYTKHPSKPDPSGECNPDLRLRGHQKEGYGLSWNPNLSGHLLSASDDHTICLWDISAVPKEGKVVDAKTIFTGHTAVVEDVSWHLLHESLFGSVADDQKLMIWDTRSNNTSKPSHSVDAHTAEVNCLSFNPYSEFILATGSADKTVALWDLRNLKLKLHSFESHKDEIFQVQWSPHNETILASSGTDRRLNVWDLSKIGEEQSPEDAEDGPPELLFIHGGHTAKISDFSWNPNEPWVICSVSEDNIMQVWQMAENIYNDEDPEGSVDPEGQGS
Method: Purified PRC2, peptides, and chromatin substrates were added to reaction buffer (50 mM HEPES, pH 7.9, 0.5 mM DTT, 0.4 mM PMSF). Labeled S-adenosyl-methionine (3H-SAM) was added to reactions (225 μM), followed by incubation at 30° C. The reactions were stopped by binding to P81 filter paper (GE Health) for scintillitation counting, or the addition of SDS-PAGE for autoradiography.

PRC2 [2] = target: T1, PRC2; experiment: in vitro PRC2 histone methyltransferase reactions with H3 peptides added in trans; format: biochemical; conditions: for effect on PRC2 activity relative to the no peptide control: H3 peptides (18-37) in trans, purified wildtype mononucleosomes (FIG. 3A)
Method: Human EED protein containing an N-terminal FLAG-epitope was cloned in pCDH-EF1alpha-IRES-Puro (System Biosciences). Resulting lentivirus were used to establish stable 293T and Hela cell lines that express FLAG-hEED. Nuclear extracts were prepared from washed cell pellets as previously described (Lewis et al., “Daxx is an H3.3-specific Histone Chaperone and Cooperates with ATRX in Replication-Independent Chromatin Assembly at Telomeres,” Proc Natl Acad Sci USA 107: 14075-14080 (2010), which is hereby incorporated by reference in its entirety). FLAG-M2 immunoprecipitation of clarified nuclear extract was performed, followed by washing (250 mM KCl) and elution with 3XFLAG peptide (400 ng/μL). Eluate from the FLAG M2 beads was loaded onto a Mono Q ion exchange column. Mono Q fractions containing stoichiometric components of PRC2 were pooled. HEK293T cells expressing epitope-tagged Histone H3 were hypotonically lysed. Washed nuclei were resuspended in micrococcal nuclease digestion buffer (20 mM HEPES, pH 7.9, 30 mM KCl, 2 mM CaCl2, 0.4 mM PMSF, 3× Protease Inhibitor Cocktail (Roche). Micrococcal nuclease (Worthingtons, 15 U/μL) was added to nuclei, followed by incubation at 30° C. for 5-30 minutes. Reactions were returned to ice, followed by addition of 3 mM EDTA, 3 mM EGTA, 120 mM NaCl, 0.1% Triton. Nuclei were dounced (Wheaton A×10), followed by centrifugation 15K rpm in SS34. FLAG M2 beads were incubated with clarified supernatant at 4° C. Washed beads (150 mM KCl) were eluted with 3× FLAG peptide ([…]). DNA from M2 FLAG eluate fractions was resolved by gel electrophoresis for estimation of chromatin lengths. Fractions of similar chromatin (DNA) lengths were pooled and dialyzed (20 mM HEPES, pH 7.9, 10 mM KCl, 10% Glycerol, 0.4 mM PMSF, 0.5 mM DTT). Purified PRC2, peptides, and chromatin substrates were added to reaction buffer (50 mM HEPES, pH 7.9, 0.5 mM DTT, 0.4 mM PMSF). Labeled S-adenosyl-methionine (3H-SAM) was added to reactions (225 μM), followed by incubation at 30° C. The reactions were stopped by binding to P81 filter paper (GE Health) for scintillitation counting, or the addition of SDS-PAGE for autoradiography.

effect on apparent Vmax (PRC2 [1]): did not decrease
change in PRC2 activity on titration against K27me3 peptide (PRC2 [2]; 9:1 ratio of K27ac:K27me3 peptide (FIG. 3D)): no decrease
effect on PRC2 activity relative to the no peptide control (PRC2 [2]): little stimulation
effect on PRC2 activity on titration into reactions with constant low concentration of K27me3 peptide (PRC2 [2]; constant low K27me3 peptide (FIG. 3F)): no decrease
Substance: K27ac: H3 peptide (18-37) acetylated at K27

effect on PRC2 activity towards mononucleosome or oligonucleosome templates (PRC2 [2]; 10 or 100 μM peptide (FIG. 2C)): strongly stimulated
effect on PRC2 activity relative to the no peptide control (PRC2 [2]): strongly stimulated
Substance: K27me3: H3 peptide trimethylated at K27, allosteric activator of PRC2

inhibitory effect on PRC2 in vitro (PRC2 [2]; 50 or 100 μM H3 peptide (18-37), reconstituted nucleosomes (FIGS. 5B and 5C)): no inhibitory effect
Substance: Lys^27 replaced by Leu: H3 peptide (18-37) containing Lys27 replaced by Leu (KQLATKAARLSAPSTGGVKK)

effect on PRC2 activity relative to the no peptide control (PRC2 [2]): little stimulation
Substance: unmodified: unmodified H3 peptide (18-37)
